Experimental data taken from patent publication US10227388B2, “Peptides and combination of peptides for use in immunotherapy against non-small cell lung cancer and other cancers” (immatics biotechnologies GmbH, priority 2015, dated 2019).

Target: HLA-A*02:01 (Homo sapiens, UniProt P04439, D140Y/D185E/D98H/E176V/E277Q/G131W/G231S/I119V/I121R/I166T/I218V/L300P/L318F/N151K/N90K/P208A/P217A/Q86G/Q94H/R138H/R169H/T345S)
Test: MHC binding assay (UV-ligand exchange, ELISA, peptide exchange yield)
Settings: binding of HLA-class I restricted peptides to HLA-A*02:01
Source text: Candidate peptides for T cell based therapies according to the present invention were further tested for their MHC binding capacity (affinity). The individual peptide-MHC complexes were produced by UV-ligand exchange, where a UV-sensitive peptide is cleaved upon UV-irradiation, and exchanged with the peptide of interest as analyzed. Only peptide candidates that can effectively bind and stabilize the peptide-receptive MHC molecules prevent dissociation of the MHC complexes. To determine the yield of the exchange reaction, an ELISA was performed based on the detection of the light chain ([…]) of stabilized MHC complexes. The assay was performed as generally described in Rodenko et al. (Rodenko et al., 2006).
96 well MAXISorp plates (NUNC) were coated over night with 2-ug/ml streptavidin in PBS at room temperature, washed 4× and blocked for 1 h at 37° C. in 2% BSA containing blocking buffer. […] Peptide-MHC monomers of the UV-exchange reaction were diluted 100 fold in blocking buffer. Samples were incubated for 1 h at 37° C., washed four times, incubated with 2-ug/ml HRP conjugated anti-β2m for 1 h at 37° C., washed again and detected with TMB solution that is stopped with […]. Absorption was measured at 450 nm. Candidate peptides that show a high exchange yield (preferably higher than 50%, most preferred higher than 75%) are generally preferred for a generation and production of antibodies or fragments thereof, and/or T cell receptors or fragments thereof, as they show sufficient avidity to the MHC molecules and prevent dissociation of the MHC complexes.

| Substance | Peptide exchange (MHC class I binding score, peptide exchange yield) |
| --- | --- |
| 103 (TLAEEVVAL; listed as Homo sapiens) [compound 103] | ″+++″ (≥50% = +++) |
| 104 (STMEQNFLL; listed as Homo sapiens) [compound 104] | ″++++″ (≥75% = ++++) |
| 106 (LLYDAVHIVSV; listed as Homo sapiens) [compound 106] | ″+++″ (≥50% = +++) |
| 107 (FLQPVDDTQHL; listed as Homo sapiens) [compound 107] | ″+++″ (≥50% = +++) |
| 108 (ALFPGVALLLA; listed as Homo sapiens) [compound 108] | ″++++″ (≥75% = ++++) |
| 109 (IILSILEQA; listed as Homo sapiens) [compound 109] | ″++++″ (≥75% = ++++) |
| 110 (FLSQVDFEL; listed as Homo sapiens) [compound 110] | ″+++″ (≥50% = +++) |
| 111 (YVWGFYPAEV; listed as Homo sapiens) [compound 111] | ″+++″ (≥50% = +++) |
| 114 (SLVGEPILQNV; listed as Homo sapiens) [compound 114] | ″++″ (≥20% = ++) |
| 115 (AIAGAGILYGV; listed as Homo sapiens) [compound 115] | ″++″ (≥20% = ++) |
| 116 (YHIDEEVGF; listed as Homo sapiens) [compound 116] | ″+″ (≥10% = +) |
| 117 (ILPDGEDFLAV; listed as Homo sapiens) [compound 117] | ″+++″ (≥50% = +++) |
| 119 (FLYIGDIVSL; listed as Homo sapiens) [compound 119] | ″++++″ (≥75% = ++++) |
| 120 (ALLGIPLTLV; listed as Homo sapiens) [compound 120] | ″+++″ (≥50% = +++) |
| 121 (GVVDPRAISVL; listed as Homo sapiens) [compound 121] | ″++″ (≥20% = ++) |
| 122 (FLLAEDDIYL; listed as Homo sapiens) [compound 122] | ″+++″ (≥50% = +++) |
| 123 (NLWDLTDASVV; listed as Homo sapiens) [compound 123] | ″+++″ (≥50% = +++) |
| 124 (ALYETELADA; listed as Homo sapiens) [compound 124] | ″++″ (≥20% = ++) |
| 125 (VQIHQVAQV; listed as Homo sapiens) [compound 125] | ″+++″ (≥50% = +++) |
| 126 (VLAYFLPEA; listed as Homo sapiens) [compound 126] | ″++++″ (≥75% = ++++) |
| 127 (KIGDEPPKV; listed as Homo sapiens) [compound 127] | ″++″ (≥20% = ++) |

| Substance | Peptide exchange (MHC class I binding score, peptide exchange yield) |
| --- | --- |
| 128 (YLFDDPLSAV; listed as Homo sapiens) [compound 128] | ″++″ (≥20% = ++) |
| 129 (GLLDGGVDILL; listed as Homo sapiens) [compound 129] | ″+++″ (≥50% = +++) |
| 130 (FLWNGEDSALL; listed as Homo sapiens) [compound 130] | ″+++″ (≥50% = +++) |
| 131 (FVPPVTVFPSL; listed as Homo sapiens) [compound 131] | ″++″ (≥20% = ++) |
| 132 (LLVEQPPLAGV; listed as Homo sapiens) [compound 132] | ″+++″ (≥50% = +++) |
| 133 (KVLSNIHTV; listed as Homo sapiens) [compound 133] | ″++″ (≥20% = ++) |
| 134 (YLQELIFSV; listed as Homo sapiens) [compound 134] | ″+++″ (≥50% = +++) |
| 135 (ALSEVDFQL; listed as Homo sapiens) [compound 135] | ″+++″ (≥50% = +++) |
| 136 (YLADPSNLFVV; listed as Homo sapiens) [compound 136] | ″+++″ (≥50% = +++) |
| 137 (TLVLTLPTV; listed as Homo sapiens) [compound 137] | ″++++″ (≥75% = ++++) |
| 138 (YQYPRAILSV; listed as Homo sapiens) [compound 138] | ″+++″ (≥50% = +++) |
| 139 (SVMEVNSGIYRV; listed as Homo sapiens) [compound 139] | ″+++″ (≥50% = +++) |
| 140 (YMDAPKAAL; listed as Homo sapiens) [compound 140] | ″++″ (≥20% = ++) |
| 142 (FLFATPVFI; listed as Homo sapiens) [compound 142] | ″+++″ (≥50% = +++) |
| 144 (YIMEPSIFNTL; listed as Homo sapiens) [compound 144] | ″+++″ (≥50% = +++) |
| 145 (FLATSGTLAGI; listed as Homo sapiens) [compound 145] | ″++″ (≥20% = ++) |
| 146 (SLATAGDGLIEL; listed as Homo sapiens) [compound 146] | ″++″ (≥20% = ++) |
| 147 (SLLEAVSFL; listed as Homo sapiens) [compound 147] | ″+++″ (≥50% = +++) |
| 148 (ALNPEIVSV; listed as Homo sapiens) [compound 148] | ″++″ (≥20% = ++) |
| 149 (NLLELFVQL; listed as Homo sapiens) [compound 149] | ″+++″ (≥50% = +++) |
| 151 (KILQQLVTL; listed as Homo sapiens) [compound 151] | ″+++″ (≥50% = +++) |

| Substance | Peptide exchange (MHC class I binding score, peptide exchange yield) |
| --- | --- |
| 152 (ILFEDIFDV; listed as Homo sapiens) [compound 152] | ″+++″ (≥50% = +++) |
| 153 (FLIANVLYL; listed as Homo sapiens) [compound 153] | ″+″ (≥10% = +) |
| 154 (ALDDGTPAL; listed as Homo sapiens) [compound 154] | ″++″ (≥20% = ++) |
| 155 (RVANLHFPSV; listed as Homo sapiens) [compound 155] | ″+++″ (≥50% = +++) |
| 157 (SLNDEVPEV; listed as Homo sapiens) [compound 157] | ″++″ (≥20% = ++) |
| 158 (KLFDVDEDGYI; listed as Homo sapiens) [compound 158] | ″+++″ (≥50% = +++) |
| 159 (GLVGNPLPSV; listed as Homo sapiens) [compound 159] | ″++++″ (≥75% = ++++) |
| 160 (FLFDEEIEQI; listed as Homo sapiens) [compound 160] | ″+++″ (≥50% = +++) |
| 161 (ALLEGVNTV; listed as Homo sapiens) [compound 161] | ″+++″ (≥50% = +++) |
| 162 (YQQAQVPSV; listed as Homo sapiens) [compound 162] | ″+++″ (≥50% = +++) |
| 163 (ALDEMGDLLQL; listed as Homo sapiens) [compound 163] | ″+++″ (≥50% = +++) |
| 164 (ALLPQPKNLTV; listed as Homo sapiens) [compound 164] | ″+++″ (≥50% = +++) |
| 165 (SLLDEIRAV; listed as Homo sapiens) [compound 165] | ″+++″ (≥50% = +++) |
| 166 (YLNHLEPPV; listed as Homo sapiens) [compound 166] | ″+++″ (≥50% = +++) |
| 167 (KVLEVTEEFGV; listed as Homo sapiens) [compound 167] | ″+++″ (≥50% = +++) |
| 168 (KILDADIQL; listed as Homo sapiens) [compound 168] | ″++++″ (≥75% = ++++) |
| 169 (NLPEYLPFV; listed as Homo sapiens) [compound 169] | ″+++″ (≥50% = +++) |
| 170 (RLQETLSAA; listed as Homo sapiens) [compound 170] | ″+++″ (≥50% = +++) |
| 171 (LLLPLQILL; listed as Homo sapiens) [compound 171] | ″+++″ (≥50% = +++) |
